# According to patent publication US9081020B2, “Mutant proteins and methods for selecting them” (Heptares Therapeutics Limited, priority 2008, dated 2015):
# Substitutions are numbered along the chain they refer to. Numbers in names are those of the source. Where “and” joins values, the source holds several entries; their conditions need not be identical. Equal entries are not always repeated. Where two headings read alike, the source gives them in different places.
# T1: M1 mAChR (Rattus norvegicus, UniProt P08482, DEL225-353/L65A)
# T1 construct: (His)9QGG (C); expressed in transfected cells; host or cells: E. coli BL21 (whole cells)
# T1 sequence (P08482 with tags, fused parts or gaps L65A/DEL225-353): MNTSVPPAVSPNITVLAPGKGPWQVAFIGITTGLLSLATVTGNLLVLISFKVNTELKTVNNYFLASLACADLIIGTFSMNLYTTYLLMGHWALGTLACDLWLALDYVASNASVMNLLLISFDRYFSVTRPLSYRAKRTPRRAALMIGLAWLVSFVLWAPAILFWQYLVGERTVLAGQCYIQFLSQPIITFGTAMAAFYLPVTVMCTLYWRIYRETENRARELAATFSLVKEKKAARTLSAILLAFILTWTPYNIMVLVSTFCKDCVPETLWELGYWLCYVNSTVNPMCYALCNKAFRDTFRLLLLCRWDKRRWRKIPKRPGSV
# B1: L65A: M1 mAChR mutant L65A (TM2); background and internal control in Example 3 (protein, UniProt P11229 1-460, looked up, variant L65A)
# Muscarinic acetylcholine …: MNTSAPPAVSPNITVLAPGKGPWQVAFIGITTGLLSLATVTGNLLVLISFKVNTELKTVNNYFLASLACADLIIGTFSMNLYTTYLLMGHWALGTLACDLWLALDYVASNASVMNLLLISFDRYFSVTRPLSYRAKRTPRRAALMIGLAWLVSFVLWAPAILFWQYLVGERTVLAGQCYIQFLSQPIITFGTAMAAFYLPVTVMCTLYWRIYRETENRARELAALQGSETPGKGGGSSSSSERSQPGAEGSPETPPGRCCRCCRAPRLLQAYSWKEEEEEDEGSMESLTSSEGEEPGSEVVIKMPMVDPEAQAPTKQPPRSSPNTVKRPTKKGRDRAGKGQKPRGKEQLAKRKTFSLVKEKKAARTLSAILLAFILTWTPYNIMVLVSTFCKDCVPETLWELGYWLCYVNSTINPMCYALCNKAFRDTFRLLLLCRWDKRRWRKIPKRPGSVHRTPSRQC
# B2: L65A/L402A: M1 mAChR double mutant, Ala mutation on L65A background (protein, UniProt P11229 1-460, looked up, variant L65A L402A)
# Muscarinic acetylcholine …: B1 Muscarinic acetylcholine … with L402A
# B3: L65A/W101A: M1 mAChR double mutant, W101A on L65A background (protein, UniProt P11229 1-460, looked up, variant L65A W101A)
# Muscarinic acetylcholine …: B1 Muscarinic acetylcholine … with W101A
# B4: L65A/T202A: M1 mAChR double mutant, Ala mutation on L65A background (protein, UniProt P11229 1-460, looked up, variant L65A T202A)
# Muscarinic acetylcholine …: B1 Muscarinic acetylcholine … with T202A
# B5: L65A/L144A: M1 mAChR double mutant, Ala mutation on L65A background (protein, UniProt P11229 1-460, looked up, variant L65A L144A)
# Muscarinic acetylcholine …: B1 Muscarinic acetylcholine … with L144A
# B6: L65A/C205A: M1 mAChR double mutant, Ala mutation on L65A background (protein, UniProt P11229 1-460, looked up, variant L65A C205A)
# Muscarinic acetylcholine …: B1 Muscarinic acetylcholine … with C205A
# B7: L65A/E397A: M1 mAChR double mutant, Ala mutation on L65A background (protein, UniProt P11229 1-460, looked up, variant L65A E397A)
# Muscarinic acetylcholine …: B1 Muscarinic acetylcholine … with E397A
# B8: L65F: M1 mAChR mutant L65F, homologous to M4 mAChR (protein)
# chain: B1 Muscarinic acetylcholine … with A65F
# B9: L65A/Y82A: M1 mAChR double mutant, Ala mutation on L65A background (protein, UniProt P11229 1-460, looked up, variant L65A Y82A)
# Muscarinic acetylcholine …: B1 Muscarinic acetylcholine … with Y82A
# B10: L65A/Y208A: M1 mAChR double mutant, Ala mutation on L65A background (protein, UniProt P11229 1-460, looked up, variant L65A Y208A)
# Muscarinic acetylcholine …: B1 Muscarinic acetylcholine … with Y208A
# B11: L65A/V409A: M1 mAChR double mutant, Ala mutation on L65A background (protein, UniProt P11229 1-460, looked up, variant L65A V409A)
# Muscarinic acetylcholine …: B1 Muscarinic acetylcholine … with V409A
# B12: L65V: M1 mAChR mutant L65V selected from random mutagenesis screen (protein)
# chain: B1 Muscarinic acetylcholine … with A65V
# B13: L65A/I74A: M1 mAChR double mutant, Ala mutation on L65A background (protein, UniProt P11229 1-460, looked up, variant L65A I74A)
# Muscarinic acetylcholine …: B1 Muscarinic acetylcholine … with I74A
# How the values were obtained:
# M1 mAChR [1] = target: T1, M1 mAChR; assay type: physicochemical; conditions: after in-situ destabilisation in BOG or DDM
# Experimental: (§1) This concentration was determined by analysing wild-type M1 mAChRs expressed in the inner cell membranes of intact E. Coli strain BL21 cells. The cells were pre-labelled with the radiolabelled antagonist 3H—N-methyl scopolamine and resuspended to a pre-determined cell density (Absorbance at 600 nm=2.0) in a chosen buffer (in this case 50 mM sodium phosphate, 1 mM EDTA, pH 7.5). […] The wild-type M1 mAChRs were titrated by the addition of increasing concentrations of beta octyl glucoside dissolved in the same buffer for different times (e.g. 1 h, 2 h, 3 h, 5 h, 15 h) and at different temperatures (e.g. 4° C., 15° C.). The loss of specifically-bound radioligand was then measured after recovering the cells by centrifugation (15000×g, 15 min.). In the example, the centrifugation step was performed on duplicate 1 ml aliquots of the cells. The experiment was repeated 3 times. […] It will be appreciated that the cell density, detergent concentration and other parameters of the assay may be varied to adjust the loss of activity as appropriate.
# (§2) (a) A state of in-situ destabilisation of a particular membrane protein in a particular cell membrane as a result of the addition of a particular concentration of a particular detergent, can be defined by the loss of the characteristic specific ligand binding activity of the membrane protein for a particular ligand of interest in the presence of a defined concentration of a particular detergent molecule or other solubilising agent.
# (§3) A preferred version of the assay is destabilisation of a membrane protein-ligand complex in a detergent-enriched membrane. The membrane protein, either in a membrane preparation, or in intact cells in-vivo or ex-vivo, is pre-incubated with a labelled version of the ligand, the label, for instance, being a radioactive label, or a fluorescent label, and the binding step preferably being allowed to proceed to equilibrium, defined as the achievement of a time-invariant level of binding. To define membrane protein-independent, or non-specific, binding the binding step is performed with the addition of a second non-labelled ligand, called the competing ligand, having an appropriate membrane protein-specific pharmacology, at a concentration sufficient fully to occupy the binding sites of the membrane protein and thereby exclude the binding of the labelled ligand. The difference between the binding of the labelled ligand in the absence and presence of the competing ligand is defined as the specific binding of the labelled ligand. Measurement of binding requires a suitable method for separating and measuring bound ligand. Characteristically, this involves centrifugation of intact cells or membranes for a time and at a centrifugal force adequate to pellet them (for instance, 15000×g for 15 min in the case of E. coli cells, or 100,000×g for plasma membrane preparations), or filtration of a membrane suspension e.g. through a suitable filter paper such as glass fibre paper e.g. GF-B or GF-C followed by counting of radioactivity. Alternatively, it might involve the measurement of an optical signal such as enhancement of fluorescence emission in the case of fluorescent ligands.
# (§4) To perform the in-situ destabilisation assay, a pre-determined concentration of the detergent or other destabilising agent of choice is mixed with a membrane or cell suspension containing the pre-labelled membrane protein in an appropriate buffer composition at a particular temperature and for a particular time, determined as described below.
# M1 mAChR [2] = assay type: physicochemical; conditions: for % 3H-NMS retained BOG / % loss/wt / mean % retained: 0.82% BOG; for % 3H-NMS retained BOG / % loss/wt / mean % retained / Stability (βOG in-situ) % L65A control: 4° C., 3 h; for % 3H-NMS retained BOG: whole E. coli BL21 cells, single culture; for % loss/wt: % loss relative to wild-type control; for mean % retained: mean of the cultures; for Stability (βOG in-situ) % L65A control / in-situ stability relative to L65A, in words: 0.82% β-octyl glucoside; for Stability (βOG in-situ) % L65A control: % loss(control)/% loss(mutant), mean±SEM of 3; for in-situ stability relative to L65A, in words: L65A background
# Experimental: as §1, §2, §3, §4
# M1 mAChR [3] = test: thermal stability (Tm) of partially purified [3H]NMS-labelled receptors in 0.1% dodecyl-β-maltoside; assay type: physicochemical, rat; conditions: 0.1% DDM; for Tm (0.1% DDM): incubation time 30 min, mean±range/SEM; for thermal stability (Tm) relative to L65A, in words: partially purified mutants
# Experimental: For measurements of thermal melting temperature (Tm), [3H]NMS-labelled receptors were partially purified by immobilized metal ion affinity chromatography from cultures grown from single clones expressed in E. Coli BL21 cells, essentially as described in Hulme and Curtis, 1998 (21). Tm measurements were carried out after gel-filtration of partially purified receptors into 50 mM sodium phosphate, 5 mM β-mercaptoethanol and 0.1% dodecyl-β-maltoside (DDM), using an incubation time of 30 min. Values were tabulated as mean±range/SEM of 2 or more independent measurements (Table 3).
Molecule,Stability (βOG in-situ) % L65A control (M1 mAChR [2]) [% L65A control],Tm (0.1% DDM) (M1 mAChR [3]) [°C],"in-situ stability relative to L65A, in words (M1 mAChR [2])","thermal stability (Tm) relative to L65A, in words (M1 mAChR [3])",other results
B1,100,29.3 ± 0.4,,,enhanced stability relative to wild-type (retention of bound 3H-NMS) (M1 mAChR [1]): 2 fold; % 3H-NMS retained BOG (M1 mAChR [2]; listed as L65A 1): 83% and 79%; % 3H-NMS retained BOG (M1 mAChR [2]; listed as L65 A 2): 86%; % 3H-NMS retained BOG (M1 mAChR [2]; listed as L65A 2): 79%; % loss/wt (M1 mAChR [2]; listed as L65A 1): 0.29 and 0.4; mean % retained (M1 mAChR [2]; listed as L65A 1): 84.5% and 79%
B2,105 ± 10,30.1 ± 0.5,,,
B3,136 ± 9,31.0 ± 0.4,more stable,increased stability,
B4,94 ± 1,31.1 ± 0.2,,marginal increase,
B5,125 ± 16,29.8 ± 1.0,,,
B6,106 ± 5,28.1 ± 0.1,,,
B7,166 ± 16,33.6 ± 0.2,more stable,increased stability,
B8,74 ± 16,30.2 ± 0.5,,,
B9,175 ± 61,25.3 ± 0.5,enhanced stability in 2 out of 3 experiments,Reduced stability,
B10,100 ± 7,29.6 ± 0.5,,,
B11,34 ± 3,26.8,significantly reduced stability,reduced stability,
B12,115,32.6 ± 0.4,,more stable than L65A,% 3H-NMS retained BOG (M1 mAChR [2]; listed as L65V 1): 81%; % 3H-NMS retained BOG (M1 mAChR [2]; listed as L65V 2): 95%; % loss/wt (M1 mAChR [2]): 0.23; mean % retained (M1 mAChR [2]): 88%
B13,51 ± 3,28.8 ± 0.5,significantly reduced stability,no change,
